Molecular target: biotinylated bovine transferrin (bovine, UniProt Q29443 20-704, biotinylated (sites not given))
Assay: affinity chromatography: H. somnus total membranes mixed with biotinylated bovine transferrin, captured on streptavidin-agarose

Sequence of biotinylated bovine transferrin (Q29443 20-704 limits assumed): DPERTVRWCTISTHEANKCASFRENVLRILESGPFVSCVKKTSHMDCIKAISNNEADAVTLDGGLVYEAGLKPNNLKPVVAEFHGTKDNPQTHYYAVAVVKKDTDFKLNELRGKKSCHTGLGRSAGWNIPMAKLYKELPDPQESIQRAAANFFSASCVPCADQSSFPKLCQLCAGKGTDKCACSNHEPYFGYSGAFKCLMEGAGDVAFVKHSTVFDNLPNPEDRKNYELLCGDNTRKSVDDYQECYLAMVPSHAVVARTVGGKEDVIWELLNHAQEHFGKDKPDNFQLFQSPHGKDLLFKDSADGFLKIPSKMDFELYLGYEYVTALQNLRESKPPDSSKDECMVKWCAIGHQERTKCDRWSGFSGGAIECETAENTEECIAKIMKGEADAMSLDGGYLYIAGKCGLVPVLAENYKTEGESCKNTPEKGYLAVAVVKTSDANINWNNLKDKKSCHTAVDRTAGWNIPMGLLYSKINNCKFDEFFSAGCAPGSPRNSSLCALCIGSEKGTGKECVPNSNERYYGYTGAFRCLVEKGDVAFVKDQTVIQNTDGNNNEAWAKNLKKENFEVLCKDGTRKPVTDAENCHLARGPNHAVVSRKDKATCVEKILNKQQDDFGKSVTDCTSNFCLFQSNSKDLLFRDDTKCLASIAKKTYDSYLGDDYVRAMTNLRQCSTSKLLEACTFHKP

Row | Binder | binding result
1 | H. somnus transferrin-binding protein 1 (native, from strain HS25) (receptor, also called Tbp1; native H. somnus Tbp1) DTESPSSNTEAVLELEAIQVQAKHEISRHDNEVTGLGKVVKSSEDIDKELILNIRDLTRYDPGISVVEQGRGATSGYAMRGVDRNRVAMLVDGLGQAQSYSTLKSDANGGAINEIEYENIKSIELSKGSSSAEYGSGALGGAVGFRTKEADDVIKEGQNWGLNSKTAYSSKNSQFTQSVAGAFRVGGFDSLAIFTHRKGKETRVHPAAEEIQHTYQPLEGYFNRYEVDQNRNGKPVLANAYYILADECSNLSDPSCRHAKAKTNRVGAPENNPNWTPEEQAQAAKMPYPTRTASAKDYTGPDRISPNPMDYQSHSFFWKGGYRLSPNHYVGGVLEHTKQRYDIRDMTQRAYYTKEDICHSGSSCQTLDKNETDKGNFGITLTDNPLDGLVYDAGNQARGVRYGRGKFFNERHTKNRSGIFYRYENPDKNSWPDSLTLSIDRQDLKLSSRIHWTYCTDYPHVARCRASLDKPWSNYRTEKNDYQERLNLGQFNWEKTFNLGFTTHKVNIAAGFGTHRSTLQHGDLYAEYVTLPPYTEEKVYGEDNKVKQNPTAEEKEKLQYGNGSYDKPRVYRRKNTPELKTVNGCNETAGDNRDCSPRVITGRQYYLALRNHIAFGEWADLGLGVRYDNHTFRSNDPWTKGGNYHNWSWNAGVSLKPTRHFVVSYRVSSGFRVPAFYELYGVRTGASGKDNPLTQKEFLSRKPLKSEKAFNQEIGLAVQGDFGVIETSFFQNNYKNLLARADKYVEGLGYVTDFYNTQDVKLNGINILGRIYWEGISDRLPEGLYSTLAYNRINIKARKLHDNFTNVSEPTLEAVQPGRIIASIGYDDPEGRWGLNLSGTYSQAKQRDEVVGEKVFGKGGSIKRTINSKRTRAWYIYDLTAYYTWKEKFTLRAGIYNLTNRKYSTWESVRQSAANAVNQDLGTRSARFAARGRNFTVSMEMKF | binds
2 | H. somnus transferrin-binding protein 2 (native, from strain HS25) (receptor, lipid modification (lipoprotein; residue not stated), The signal peptide (residues 1-19) is stated; also called Tbp2; protein with relative molecular weight of 80,000) CSSGKGGFDLDDVEHTPPSSSGSSRPTYQDVPTGQRQQEIVEEINSPALGYATEIPRRNISPMPTTGTKESNARVAITAQQVAPLSMPFNSIKEDFIKRLIAENTKKNARGRDVKYFDDTDDVLFAHDGSNLAHKRDLQYVRVGYVLGTRKIELVFSHDKKTRDQFPAGWVGYVFYQGTSPAVTLPTQTVTYKGYWDFVSDAFNERTLAEDFTQENSSATSNIPGNQIGATSMDALVNRKVSGEKINIAHSAEFTADFGSKKLSGELKSNGYVSRIENEQQDVKTRYKIDADIKGNRFVGSATAQEKSHTIFGKDADKRLEGGFFGPKAEELAGKFLTDDNSLFVVFGAKRESKGDEKLETRFDAVKISTDSNKLEKETMDTFGNAAYLVLDGRQFPLVPESNAGTTGAGNTGKNEFISTIDGSHLNKTNHENHKKYKVTVCCSNLVYVKFGSYGEQTTANDASNSTAGAATTHNSTLTNGHLFLTGERTSLTDMAKQSGAAKYIGTWQANFLSSKGQVGSVDAGDPRNDSGKSRAEFDVNFGGKTVTGKFFDADGIQPALTMDSTKIEGNGFSGTAKTTGSLQLDKGSTGAGITVTFTDAKVDGAFYGPNAEEIGGTITSNGTGDKVGGVFGAKRQELSQQK | binds

— US20030007981A1 (UNIVERSITY OF SASKATCHEWAN, published 2003)
